Target: IgG (immobilised on resin in a column)
Assay: IgG-functionalised resin column, about 15 min reaction, buffer wash; effluent monitored for nanoparticle luminescence

percent of ionic bioconjugates retained by the column: 95 to 98%
Substance: protein G-zipper fusion protein (IgG binding b2 sub-domain of streptococcal protein G, linker, basic leucine zipper tail, hexahistidine), electrostatically attached to CdSe-ZnS dihydrolipoic acid nanoparticles (from UniProt P19909 373-427)
